Measurements as given in paper PMC10294715, “Single-cell RNA-seq uncovers dynamic processes orchestrated by RNA-binding protein DDX43 in chromatin remodeling during spermiogenesis”.

Target: DDX43 (Mus musculus, UniProt D3Z6P9 1-646)
Assay: EMSA; EMSA: 10 nM biotin-RNA, 50 mM Tris-HCl pH 7.5, 100 mM KCl, 2.5% glycerol, 0.05% NP-40, 4 mM EDTA, 1 mM DTT, RiboLock 2 U, 37 C 30 min; 8% native TBE PAGE at 4 C; G4 folded in 50 mM Tris-HCl pH 7.5, 150 mM KCl, 0.1 mM EDTA
Settings: protein: recombinant; tags: His tag (Ni-NTA, pET28a); label: 3' biotin; single strand

Sequence of DDX43 (D3Z6P9 entry or part of it): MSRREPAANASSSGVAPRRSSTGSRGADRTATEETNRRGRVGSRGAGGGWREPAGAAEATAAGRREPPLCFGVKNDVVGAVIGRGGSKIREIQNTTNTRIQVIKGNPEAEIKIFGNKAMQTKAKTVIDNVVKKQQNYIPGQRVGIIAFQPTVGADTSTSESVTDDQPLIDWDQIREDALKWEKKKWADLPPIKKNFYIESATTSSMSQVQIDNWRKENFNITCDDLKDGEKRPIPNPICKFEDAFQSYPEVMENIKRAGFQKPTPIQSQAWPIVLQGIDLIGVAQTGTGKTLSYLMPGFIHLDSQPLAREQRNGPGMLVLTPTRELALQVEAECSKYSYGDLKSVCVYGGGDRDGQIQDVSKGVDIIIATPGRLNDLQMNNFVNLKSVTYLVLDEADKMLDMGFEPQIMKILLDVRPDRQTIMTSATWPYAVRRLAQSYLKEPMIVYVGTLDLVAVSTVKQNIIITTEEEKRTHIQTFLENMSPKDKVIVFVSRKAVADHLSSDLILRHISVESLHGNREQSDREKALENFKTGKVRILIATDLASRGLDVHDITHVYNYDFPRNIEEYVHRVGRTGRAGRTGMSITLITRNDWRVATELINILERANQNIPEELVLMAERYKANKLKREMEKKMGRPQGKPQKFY

ACCGCUGCCGUCGCUCCG (ssRNA) [ssRNA]: no binding.
